Patent publication US7989466B2, “Methods to inhibit or augment an inflammatory response” (Cambridge Enterprise Limited, priority 1999, dated 2011)
Where two headings read alike, the source gives them in different places. Positions of bridges follow the written chain, without caps; N, C: chain ends. Non-standard residues stand in square brackets, D forms with d. No end group written: not given here.

How the values were obtained:
[1] = molecular target: T1, short splice variant D2 dopamine receptor (Homo sapiens, UniProt P14416); assay: Dopamine receptor membrane binding (3H-Spiperone); conditions: 100 μM highest concentration tested; read-out: ED50 for competition of spiperone binding to short splice variant D2 dopamine receptor
T1 construct: purchased RBI/Sigma D-179
T1 sequence (P14416 1-414 isoform P14416-2): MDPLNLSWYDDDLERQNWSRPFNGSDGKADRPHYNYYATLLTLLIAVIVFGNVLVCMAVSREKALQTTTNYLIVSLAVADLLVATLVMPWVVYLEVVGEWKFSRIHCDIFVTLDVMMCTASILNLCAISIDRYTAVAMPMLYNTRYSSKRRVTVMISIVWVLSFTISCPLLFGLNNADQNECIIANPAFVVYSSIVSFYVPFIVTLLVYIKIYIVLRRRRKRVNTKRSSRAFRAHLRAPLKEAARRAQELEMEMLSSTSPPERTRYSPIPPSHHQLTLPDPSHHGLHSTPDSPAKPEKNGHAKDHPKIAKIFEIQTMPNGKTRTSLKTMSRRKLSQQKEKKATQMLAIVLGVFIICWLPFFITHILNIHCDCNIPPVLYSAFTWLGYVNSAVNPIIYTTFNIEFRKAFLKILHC
Procedure: For dopamine receptor binding, membranes (D-179, RBI/Sigma) are diluted into binding buffer (75 mM Tris pH 7.4, 12.5 mM MgCl2 and 2 mM EDTA). For example, 10 μl of membranes are diluted in 500 μl of binding buffer (i.e., 1:50 dilution), which is aliquoted into labelled tubes. Cold competitor or test competitor is added, (e.g., 5 μl of 100× stock solution; 5 μl of 1 mM haloperidol solution (H-100, RBI/Sigma in DMSO). Radioligand is then added (3H-Spiperone, TRK 818, Amersham, 250 μCi in 250 μl, 10.5 μM at 95 Ci/mmol). For competition studies, 0.5 nM is used. A 100× stock (i.e., 50 nM) is made by diluting the commercial stock 1:210 in binding buffer, and 5 μl is added to every tube. Control tubes have radioligand but no membranes. The mixtures are vortexed, then spun very briefly. The mixtures are then incubated for 1 hour at 27° C. in a water bath. The mixture is filtered through GF/C filters over a vacuum. Each filter is pre-soaked in polyethyleneimine (0.3% in water; add 1 ml of 10% stock (P-261; RBI/Sigma) to 33 ml of MilliQ water). The tubes are washed with 2-3 ml of wash buffer (50 mM Tris pH 7.4) and the wash filtered. The filters are then rinsed with 3×5 ml of wash buffer, air dried, placed in a scintillation vial and 4.5 ml of scintillant added. The activity on the filter is then determined.

[2] = tested on: MCP-1 induced THP-1 migration; assay: THP-1 trans-well migration assay, MCP-1 as chemoattractant; assay type: cell-based, human; conditions: for EC50: Homo sapiens
How it was run: (§1)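 5×10^4 THP-1 cells with serially diluted peptide in upper chamber, 5 µm filter, recombinant human chemokine 50 ng/ml (5.9 nM) in lower chamber. Incubated 4 h at 37 °C. Migrated cells counted by MTT staining, A595 read against a THP-1 standard curve.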

α2-adrenoceptors = assay: α2-adrenoreceptor membrane binding (3H-RS-79948-197)
CCR5 = molecular target: T2, CCR5 (Homo sapiens, UniProt P51681); assay: Scatchard analysis of labeled RANTES binding to CCR5 HOS cells; conditions: 4° C., 2 hours, read-out: affinity of RANTES binding sites
T2 construct: host or cells: HOS cells
T2 sequence (P51681 whole entry): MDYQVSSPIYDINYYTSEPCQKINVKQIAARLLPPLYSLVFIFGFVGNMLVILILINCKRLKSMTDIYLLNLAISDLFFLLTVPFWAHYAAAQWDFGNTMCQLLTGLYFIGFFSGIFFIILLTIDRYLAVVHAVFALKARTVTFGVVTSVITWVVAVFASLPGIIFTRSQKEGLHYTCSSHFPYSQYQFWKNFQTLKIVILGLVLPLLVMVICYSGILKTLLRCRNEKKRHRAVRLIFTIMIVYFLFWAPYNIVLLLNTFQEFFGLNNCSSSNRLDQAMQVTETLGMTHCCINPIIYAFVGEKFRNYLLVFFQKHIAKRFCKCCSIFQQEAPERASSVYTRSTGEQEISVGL
Procedure: To establish the kinetics of labeled RANTES binding to CCR5, CCR5 cells and their parental line were exposed to labeled RANTES at 0.05 nM in the absence or presence of a 500-fold excess of unlabeled RANTES. Binding was performed at either 4° C. or room temperature for various periods between 30 minutes and 4 hours. All data was collected in triplicate. Equilibrium was achieved slightly quicker at room temperature than 4° C., and that in both cases binding was complete by 2 hours (FIG. 22A). […] Based on this experiment, all binding experiments were done at 4° C. for 2 hours.
A Scatchard analysis was performed under the conditions determined to represent equilibrium binding. The purpose of this experiment was to estimate the number of high affinity binding sites (CCR5 receptors) on the cell surface, since the full Scatchard analysis is performed under conditions where the binding was limited by availability of binding sites, not by number of molecules RANTES added. The result indicated about 80,000 binding sites per cell on the parental line and about 200,000-400,000 binding sites per cell on the high expressing CCR5 line. Using this information, the conditions necessary to perform a full 12-point Scatchard analysis at equilibrium, limited by binding site number, were calculated. […]

CCR5/CXCR4 = assay: Affinity for CCR5/CXCR4; assay type: binding; conditions: read-out: affinity constant for CCR5/CXCR4
HIV = assay type: cell-based; conditions: ns = not significantly different from control
gp120 = conditions: ns = not significantly different from control; >100 = ED50 not determined
[3] = tested on: MIP1α induced THP-1 migration; assay: THP-1 trans-well migration assay, MIP1α as chemoattractant; assay type: cell-based, human; conditions: ns = not significantly different from control
How it was run: as §1

[4] = tested on: SDF-1α induced THP-1 migration; assay: THP-1 trans-well migration assay, SDF-1α as chemoattractant; assay type: cell-based, human; conditions: ns = not significantly different from control
How it was run: as §1

[5] = molecular target: T3, Duffy Antigen Receptor for Chemokines (DARC) (Homo sapiens, UniProt Q16570); assay: DARC binding: competition with 125I-MCP-1 on red blood cells
T3 sequence (Q16570 1-336): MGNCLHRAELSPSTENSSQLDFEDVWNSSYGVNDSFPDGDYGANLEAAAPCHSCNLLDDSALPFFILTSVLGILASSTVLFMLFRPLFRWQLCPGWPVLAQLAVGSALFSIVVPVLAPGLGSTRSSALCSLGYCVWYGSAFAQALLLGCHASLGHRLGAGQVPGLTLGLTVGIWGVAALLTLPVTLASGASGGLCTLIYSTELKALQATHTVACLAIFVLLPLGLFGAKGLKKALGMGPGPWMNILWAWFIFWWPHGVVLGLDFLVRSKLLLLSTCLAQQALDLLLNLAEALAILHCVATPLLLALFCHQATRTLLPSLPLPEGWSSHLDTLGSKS

[6] = mouse, in vivo, sc
[7] = rat, in vivo

Which IC50 [1] does the source give for `O=C1CCC(N2C(=O)c3ccccc3C2=O)C(=O)N1` (stereo not drawn) [Thalidomide, reference compound] here?
Its IC50 is over 100000 nM.

What about the “activity in the MCP-1 induced THP-1 migration assay, in words” value [2] of the same molecule?
The value was “at 100 μM also inhibited THP-1 migration induced by MCP-1”.

And the EC50 ([2]; THP-1, agent with the cells in the upper compartment, n.s. = no statistically significant inhibition (p > 0.05), read-out: ED50 versus MCP-1, inhibition of THP-1 migration)?
Its EC50 is about 50000 nM.

For `NC(=O)C1C(O)CCC2CN3CCc4c([nH]c5ccccc45)C3CC21` (stereo not drawn) [Y-II, Yohimban-17-amide], which “selectivity for chemokine inhibition of alpha-adrenoreceptor binding” value (α2-adrenoceptors) is on record?
Its value is 1,500 fold.

What about the EC50 ([2]; THP-1, read-out: ED50 versus MCP-1 induced chemotaxis of THP-1) of the same molecule?
The EC50 was 0.5 nM.

With RANTES as the molecule, how does the Kd (CCR5) read?
The Kd was about 1 nM.

Which results are given for “Vaekpcksstirrys (V[dA][dE][dK][dP][dC][dK][dS][dS][dT][dI][dR][dR][dY][dS]) [LRD peptide 2(1-15)[MCP-1]]”?
Kd (CCR5/CXCR4): ≤ 100 nM; % virus inhibition (HIV): 72%; gp120 ED-50 (gp120): 3 µM; MIPIa ED-50 [3]: ns; SDF1a ED-50 [4]: ns; MCP-1 ED-50 ([2]; ns = not significantly different from control): ns; decrease in Duffy binding relative to the LFL peptide [5]: ~100 fold; association (affinity) constant for DARC ([5]; red blood cells): 25 µM

Which “average serum concentration at 30 minutes post injection” value [6] does the source give for “^3H-CRD-L-Leu4Ile11Cys13 peptide 3(3-12)[MCP-1]: diastereomer of CRD-Leu4Ile11Cys13 peptide 3(3-12)[MCP-1] with L-leucine instead of D-leucine ([dC][dQ][dI][dW][dK][dQ][dK][dP][dD]L[dC]-NH2; disulfide 1-11; also: 3H-labelled, site not given here)” here?
Its value is 503 ng/g.

And the A [7]?
Its A is “A: 48.88 μg/mL”.

What about the AUC [7] of the same molecule?
The AUC was 31430 ng·h/mL.

And the B [7]?
The B was “B: 63.64 μg/mL”.

And the Maximal concentration [7]?
The Maximal concentration was 1,710 ng mL^−1.

What about the Maximal concentration/dose [7] of the same molecule?
The Maximal concentration/dose was 0.000017.

What about the Vd [7] of the same molecule?
The Vd was 0.36 L/kg.

What about the “dose accounted for in the 25 tissues and organs assayed at 3 hours post injection” value [7] of the same molecule?
Its value is “about 11 % i.d”.

What about the “dose excreted in urine over the first 2 hours” value [7] of the same molecule?
The value was over 80 % i.d.

And the “injected radioactivity in the urine with a mass consistent with the intact, cyclized structure” value [7]?
The value was over 80%.

What about the “serum concentration at 30 minutes” value [7] of the same molecule?
Its value is 591 ng/g.

And the “share of the total counts in the unwashed cell pellet at 10 minutes” value [7]?
The value was under 12%.

And the α [7]?
Its α is “α: 9.59”.

And the β [7]?
The β was “β: 2.42”.

And the “dose eliminated in the urine over the first 4 hours” value ([7]; iv)?
Its value is 86.6+/−16.5 % i.d.

What about the “injected dose present in blood by four hours post injection” value ([7]; iv) of the same molecule?
The value was “about 0.1%”.

And the “serum concentration at 10 minutes post injection, females” value ([7]; iv)?
Its value is 1238 ± 138 ng/mL.

What about the “serum concentration at 10 minutes post injection, males” value ([7]; iv) of the same molecule?
Its value is 1141 ± 283 ng/mL.

What about the “serum level at 10 minutes, females” value ([7]; iv) of the same molecule?
The value was 12.45±1.39 % of the injected dose.

What about the “serum level at 10 minutes, males” value ([7]; iv) of the same molecule?
Its value is 14.38±3.46 % i.d.

And the Elimination half-life ([7]; iv, 100 ug)?
The Elimination half-life was 11.4 min.

What about the “alpha-phase T1/2” value ([7]; iv, 100 ug) of the same molecule?
Its value is 4.2 min.

What about the “beta-phase T1/2” value ([7]; iv, 100 ug) of the same molecule?
Its value is 17.4 min.

And the “dose remaining in the blood by 2 hours” value ([7]; iv, 2 h)?
The value was “less than 1 % i.d”.

And the “activity in the MCP-1 induced THP-1 migration assay, in words” value [2]?
The value was “retained functional activity”.
